{"source": "patent US20140256614", "tested_on": "MK2-activating peptide (transduction domain YARAAARQARA coupled to a Kaposin-derived region)", "data": [{"substance": "MK2 (endogenous, in rat pulmonary endothelial cells, RPMEC)", "values": [{"measurement": "HSP27 phosphorylation in RPMEC after MK2 siRNA knock-down against control siRNA", "result": "MK2 siRNA reduced the level of MK2 in the cells and blocked the activity of the MK2-activating peptide"}, {"measurement": "phosphorylated HSP27 by immunoblot, time course at 50 µM peptide, RPMEC", "result": "significant MK2 activation was observed by 15 minutes of treatment"}]}]}
